# Columns and labels:
# [1] = target: tau4R, the microtubule-binding region with R1-R4, labelled with Alexa Fluor 488 (human (by the printed UniProt entry)); assay: fluorescence correlation spectroscopy (FCS); ~20 nM fluorescent protein (Alexa 488-labelled tau construct or eGFP) with unlabelled αS seeds at 20, 60 or 100 nM (monomer units); 20°C; 50 mM Na2HPO4, 50 mM NaCl pH 7.0; two-component diffusion fit, medians of type III curves
# [2] = target: tau_(1N4R), full-length 1N4R tau, labelled with Alexa Fluor 488 (human (by the printed UniProt entry)); assay: as above
substance,measurement,setting,value
αS_(1-100) seeds (sonicated fibrils of N-terminally acetylated αS_(1-100)) (from UniProt P37840 1-100) (complex),Q (brightness of bound tau relative to monomer tau) at 20 nM αS (1-100) seeds,[1],1
same,Q (brightness of bound tau relative to monomer tau) at 60 nM αS (1-100) seeds,[1],1
same,Q (brightness of bound tau relative to monomer tau) at 100 nM αS (1-100) seeds,[1],1
same,median fB (fraction of tau with τD2) at 20 nM αS (1-100) seeds,[1],0.023
same,median fB (fraction of tau with τD2) at 60 nM αS (1-100) seeds,[1],0.11
same,median fB (fraction of tau with τD2) at 100 nM αS (1-100) seeds,[1],0.11
same,median type III τ (D2app) at 20 nM αS (1-100) seeds,[1],2.1 ms
same,median type III τ (D2app) at 60 nM αS (1-100) seeds,[1],1.8 ms
same,median type III τ (D2app) at 100 nM αS (1-100) seeds,[1],2.8 ms
same,Q (brightness of bound tau relative to monomer tau) at 20 nM αS (1-100) seeds,[2],2.3
same,Q (brightness of bound tau relative to monomer tau) at 60 nM αS (1-100) seeds,[2],2
same,Q (brightness of bound tau relative to monomer tau) at 100 nM αS (1-100) seeds,[2],2.7
same,median fB (fraction of tau with τD2) at 20 nM αS (1-100) seeds,[2],0.055
same,median fB (fraction of tau with τD2) at 60 nM αS (1-100) seeds,[2],0.053
same,median fB (fraction of tau with τD2) at 100 nM αS (1-100) seeds,[2],0.16
same,median type III τ (D2app) at 20 nM αS (1-100) seeds,[2],2.8 ms
same,median type III τ (D2app) at 60 nM αS (1-100) seeds,[2],2.3 ms
same,median type III τ (D2app) at 100 nM αS (1-100) seeds,[2],2.2 ms

# — publication PMC11386428
